One sequence from patent US20160030629A1, “PEPTIDE-ALBUMIN HYDROGEL PROPERTIES AND ITS APPLICATIONS” (KANSAS STATE UNIVERSITY RESEARCH FOUNDATION, priority 2012, published 2016) can be followed below.

Holding throughout (type): physicochemical
Data set [1] is described as follows: pH of synthesized peptide in water solution. An excerpt:
Peptides were synthesized on a CEM Liberty microwave peptide synthesizer (CEM Corporation, Matthews, N.C.) based on the automated base-labile 9-fluorenylmethoxycarbonyl (Fmoc) strategy with Fmoc-protected amino acids (EMD Biosciences, San Diego, Calif.). Peptides were cleaved with 95% trifluoroacetic acid (Sigma-Aldrich, Milwaukee, Wis.), 2.5% triisopropylsilane (Sigma), and 2.5% deionized water. The crude peptides were washed three times with anhydrous ether (Fisher Biotech, Fair Lawn, N.J.). After that, peptides were dissolved in acetonitrile and distilled (DI) water (50/50 v/v). The peptide solution was frozen in a −80° C. refrigerator overnight and then was freeze-dried for 48 hours by using the Labconco freeze dry system (Labconco, Kansas City, Mo.). The pH value of the peptide in water solution was 3.6. Molecular weight of the synthesized peptide was confirmed by matrix-assisted laser desorption/ionization time-of-flight mass spectroscopy on an Ultraflex II instrument (Bruker Daltronics, Billerica, Mass.). The peptide purity was confirmed by a Beckman System Gold high performance liquid chromatography (HPLC, Beckman Coulter, Inc., Fullerton, Calif.) on a phenomenex synergi 4μ Hydro-RP column (Phenomenex, Inc., Torance, Calif.) with the following gradient: 10-90% B in 20 min (A: 99.9% H2O, 0.1% TFA; B: 90% acetonitrile, 9.9% H2O, 0.1% TFA).

The nature of data set [2]: h9e hydrogel formation in cell culture media, serum/albumin dependence. An excerpt: This phenomenon was further exploited in other cell culture medium like Dulbecco's modified Eagle's medium (DMEM), Roswell Park Memorial Institute medium (RPMI), and Leibovitz medium (L-15). […] After screening the abundant serum compounds, we concentrated on one of the most abundant proteins in serum, albumin, which contains charged groups and several surface binding domains.

A short description of data set [3]: Rheology (storage modulus, hydrogel forming rate) of h9e/BSA mixtures. The note with it: 3 mM h9e solution without BSA, 30 min test. The procedure: BSA and HSA were dissolved in water with 5 wt % concentration. The peptide solution and albumin solution were then mixed at different ratios for final mixtures of 1, 2, 3 mM h9e peptide with albumin from 0.1 to 5 wt %.
The storage (G′) and loss (G″) moduli of h9e hydrogels with different peptide/albumin ratios were measured on a rheometer system C-VOR 150 (Malvern instruments, Malvern, Worcestershire WR141XZ, United Kingdom) with a 20 mm diameter parallel plate test system. All rheological tests were carried out at 37° C. […]

A short description of data set [4]: Comparison of material properties of different 3D cell culture hydrogels. An excerpt:
In addition, for in vitro 3D cell culture, cell encapsulation and isolation are two critical steps to introduce 3D spatial support for cell growth and to recover embedded cells from the scaffold matrix for downstream studies respectively. For a convenient, effective, and safe encapsulation, cells should be added simultaneously with the initialization of hydrogelation. Therefore, mild and cyto-compatible hydrogel-forming conditions are preferred, to ensure that cells survive comfortably during gel formation. However, the sol-gel transformation of currently used peptide/protein hydrogels (i.e., puramatrix gel, hydromatix peptide hydrogel, and matrigel) is triggered by adjusting pH or temperature (Table 1).

Data set [5] can be described thus: Stability of h9e-2i hydrogel and of h9e peptide solution. The protocol:
The stability of h9e-2i medium hydrogel was tested. A plastic tray was placed on the bottom of the well plate. Next, 1 wt % h9e solution was mixed with 2i medium at 1:1 (v:v) ratio in a centrifuge tube and then transferred into the well plate. There was 500 μl peptide hydrogel for each well. The well plate was then placed in an incubator for 1 hour. After hydrogel was stable, another 500 μl of 2i medium was slowly added on the top of hydrogel. The top medium was replaced every other day. For mechanical testing, the top 2i medium was removed and hydrogel was transferred to a dynamic rheometer using the tray. The stability of the peptide solution was also tested using 1 wt % peptide solution stored in 4° C. refrigerator for up to 24 days. Part of the peptide solution was taken out and mixed with 2i medium with 1:1 (v:v) ratio on days 1, 6, 18 and 24.

Consider “FLIVIGSIIGPGGDGPGGD (Derivative of spider flagelliform silk protein and a trans-membrane segment of subunit IV in the dihydropyridine sensitive human muscle L-type calcium channel) [h9e, 19 unit amphiphilic self-assembling peptide]”, for which, in data set [1], the “pH value of the peptide in water solution” value was 3.6. Besides, the “solution to hydrogel transition” value in data set [2] (MEM without serum) is “did not stimulate this solution to hydrogel transitions effectively”. Besides, the “time to transform into a self-supporting hydrogel matrix” value in data set [2] (h9e peptide solution added into MEM with 10% serum) is on record as at most 1 min. Further, in data set [2] (serum-free N2B27 supplemented 2i medium with 1 wt % albumin), the hydrogel formation entry was “hydrogel formation”. In addition, the rheological behaviour result in data set [3] is on record as “performed as Newtonian liquid”. In data set [4], the Porosity is 50-200 nm and the “Solution pH” value is “Neutral”. For the same sequence, in data set [5] (1 wt % h9e solution stored at 4° C. for 24 days), the “hydrogel formation with 2i medium after storage of solution” value was “could still from a hydrogel”. The “stability of h9e solution” value in data set [5] (recent study, no details) is “exceed 2 months”.
